The values below come from publication PMC12044017, “CDK4/6-mediated phosphorylation of DUB3 promotes YAP1 stability and hepatocellular carcinoma progression” (Cell Death Discovery, 2025).

The target of this assay is T1, His-DUB3 (UniProt Q6R6M4 1-530).
T1 construct: deubiquitinase DUB3 (USP17L2), cloned into pET30a; the methods name only GST-DUB3 WT and His-YAP1
T1 sequence (looked up): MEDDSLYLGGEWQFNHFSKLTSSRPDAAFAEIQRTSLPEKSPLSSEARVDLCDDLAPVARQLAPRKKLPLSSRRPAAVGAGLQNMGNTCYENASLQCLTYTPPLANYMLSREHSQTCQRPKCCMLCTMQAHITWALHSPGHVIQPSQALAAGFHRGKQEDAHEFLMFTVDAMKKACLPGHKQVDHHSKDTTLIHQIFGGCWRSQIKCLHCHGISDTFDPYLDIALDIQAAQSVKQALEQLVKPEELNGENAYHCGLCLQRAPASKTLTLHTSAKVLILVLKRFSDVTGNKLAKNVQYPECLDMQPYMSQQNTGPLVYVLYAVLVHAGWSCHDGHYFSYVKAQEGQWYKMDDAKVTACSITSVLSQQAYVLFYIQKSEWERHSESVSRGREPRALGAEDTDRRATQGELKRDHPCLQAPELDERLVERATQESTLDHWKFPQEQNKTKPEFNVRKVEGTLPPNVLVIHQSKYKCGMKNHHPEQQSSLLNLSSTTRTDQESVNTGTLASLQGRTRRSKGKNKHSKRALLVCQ
Put plainly: pull-down; GST-fusion protein on Pierce Glutathione agarose mixed with purified His-tagged protein at 4 °C for 2 hours; beads washed four times; western blot. To be noted: both partners purified.

B1: GST-CDK4 (enzyme, UniProt P11802 1-303, looked up)
chain: MATSRYEPVAEIGVGAYGTVYKARDPHSGHFVALKSVRVPNGGGGGGGLPISTVREVALLRRLEAFEHPNVVRLMDVCATSRTDREIKVTLVFEHVDQDLRTYLDKAPPPGLPAETIKDLMRQFLRGLDFLHANCIVHRDLKPENILVTSGGTVKLADFGLARIYSYQMALTPVVVTLWYRAPEVLLQSTYATPVDMWSVGCIFAEMFRRKPLFCGNSEADQLGKIFDLIGLPPEDDWPRDVSLPRGAFPPRGPRPVQSVVPEMEESGAQLLLEMLTFNPHKRISAFRALQHSYLHKDEGNPE
notes: cyclin-dependent kinase 4 (CDK4); no cyclin partner is mentioned; also called cyclin-dependent kinase 4; source: bacterial-purified recombinant; GST-fusion proteins purified on Pierce Glutathione agarose
As to B1, the binding result is “binds”.
